Measured values taken from patent US20140256626A1, “PEG CONJUGATES OF EXENATIDE” (priority 2011, published 2014).

Target: human GLP-1 receptor (human) (UniProt P43220)
Assay: cell-based or functional assay

human GLP-1 receptor (human), sequence (P43220 24-463 limits assumed): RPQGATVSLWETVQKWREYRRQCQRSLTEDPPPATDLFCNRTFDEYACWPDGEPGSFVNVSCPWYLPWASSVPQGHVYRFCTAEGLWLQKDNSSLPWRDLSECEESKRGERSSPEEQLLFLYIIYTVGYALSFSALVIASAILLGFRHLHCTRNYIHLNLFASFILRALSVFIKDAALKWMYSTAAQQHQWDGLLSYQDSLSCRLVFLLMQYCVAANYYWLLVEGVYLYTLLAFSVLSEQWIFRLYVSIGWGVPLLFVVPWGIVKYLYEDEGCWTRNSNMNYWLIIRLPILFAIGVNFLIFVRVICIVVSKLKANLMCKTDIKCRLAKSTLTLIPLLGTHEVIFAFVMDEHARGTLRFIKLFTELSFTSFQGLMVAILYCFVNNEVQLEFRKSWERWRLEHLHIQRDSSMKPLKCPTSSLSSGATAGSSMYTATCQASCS

Substance	EC50 (DiscoveRx GLP1R cAMP Hunter assay)	fold decrease of biological activity against free exenatide
Stably-linked N-[6-azidohexyloxy]-exenatide conjugate of Example 5 (non-releasable control conjugate, R1 = absent, conjugated to DBCO-Lys(DEAC)-[GL4-400] 40 kDa four-branched PEG) (peptide)	> 100 nM	> 10000 fold
Exenatide (exendin-4) (peptide)	0.066 nM	
